# In the Human Domainome abundance scans (Beltran et al. 2025):
# ± gives the uncertainty stated by the source.
# B1: Histone H1t, residues 44 to 112; numbered along this chain, P22492 (parent)
# chain: VSKLITEALSVSQERVGMSLVALKKALAAAGYDVEKNNSRIKLSLKSLVNKGILVQTRGTGASGSFKLS
# Variants of: B1
# Experiment: abundance fitness (aPCA) (normalised: wild type 0, dead -1); higher = more abundant; growth selection in yeast, the domain comes from the species named
# Conditions: Homo sapiens
row,Variant,abundance fitness
1,VSKLITEALSVSQERVGMCLVALKKALAAAGYDVEKNNSRIKLSLKSLVNKGILVQTRGTGASGSFKLS,-0.155 ± 0.062
2,VSKLITEALSVSQERVGMALVALKKALAAAGYDVEKNNSRIKLSLKSLVNKGILVQTRGTGASGSFKLS,-0.205 ± 0.071
3,VSKLITEALSVSQEDVGMSLVALKKALAAAGYDVEKNNSRIKLSLKSLVNKGILVQTRGTGASGSFKLS,0.096 ± 0.13
4,VSKLITEALSVSQEEVGMSLVALKKALAAAGYDVEKNNSRIKLSLKSLVNKGILVQTRGTGASGSFKLS,0.084 ± 0.091
5,VSKLITEALSVSQEKVGMSLVALKKALAAAGYDVEKNNSRIKLSLKSLVNKGILVQTRGTGASGSFKLS,0.234 ± 0.069
6,VSKLITEALSVSQEVVGMSLVALKKALAAAGYDVEKNNSRIKLSLKSLVNKGILVQTRGTGASGSFKLS,-0.45 ± 0.1
7,VSKLITEALSVSQEQVGMSLVALKKALAAAGYDVEKNNSRIKLSLKSLVNKGILVQTRGTGASGSFKLS,-0.143 ± 0.24
8,VSKLITEALSVSQENVGMSLVALKKALAAAGYDVEKNNSRIKLSLKSLVNKGILVQTRGTGASGSFKLS,0.063 ± 0.081
9,VSKLITEALSVSQESVGMSLVALKKALAAAGYDVEKNNSRIKLSLKSLVNKGILVQTRGTGASGSFKLS,-0.089 ± 0.046
10,VSKLITEALSVSQETVGMSLVALKKALAAAGYDVEKNNSRIKLSLKSLVNKGILVQTRGTGASGSFKLS,0.05 ± 0.055
11,VSKLITEALSVSQEYVGMSLVALKKALAAAGYDVEKNNSRIKLSLKSLVNKGILVQTRGTGASGSFKLS,-0.338 ± 0.069
12,VSKLITEALSVSQEHVGMSLVALKKALAAAGYDVEKNNSRIKLSLKSLVNKGILVQTRGTGASGSFKLS,-0.061 ± 0.13
13,VSKLITEALSVSQEPVGMSLVALKKALAAAGYDVEKNNSRIKLSLKSLVNKGILVQTRGTGASGSFKLS,-0.163 ± 0.11
14,VSKLITEALSVSQEIVGMSLVALKKALAAAGYDVEKNNSRIKLSLKSLVNKGILVQTRGTGASGSFKLS,-0.312 ± 0.076
15,VSKLITEALSVSQELVGMSLVALKKALAAAGYDVEKNNSRIKLSLKSLVNKGILVQTRGTGASGSFKLS,-0.501 ± 0.046
16,VSKLITEALSVSQEMVGMSLVALKKALAAAGYDVEKNNSRIKLSLKSLVNKGILVQTRGTGASGSFKLS,-0.364 ± 0.053
17,VSKLITEALSVSQEFVGMSLVALKKALAAAGYDVEKNNSRIKLSLKSLVNKGILVQTRGTGASGSFKLS,-0.258 ± 0.052
18,VSKLITEALSVSQEGVGMSLVALKKALAAAGYDVEKNNSRIKLSLKSLVNKGILVQTRGTGASGSFKLS,-0.15 ± 0.48
19,VSKLITEALSVSQERVGYSLVALKKALAAAGYDVEKNNSRIKLSLKSLVNKGILVQTRGTGASGSFKLS,-0.487 ± 0.076
20,VSKLITEALSVSQERVGNSLVALKKALAAAGYDVEKNNSRIKLSLKSLVNKGILVQTRGTGASGSFKLS,0.016 ± 0.077

row,Variant,abundance fitness
1,VSKLITEALSVSQERVGESLVALKKALAAAGYDVEKNNSRIKLSLKSLVNKGILVQTRGTGASGSFKLS,-0.108 ± 0.055
2,VSKLITEALSVSQERVGSSLVALKKALAAAGYDVEKNNSRIKLSLKSLVNKGILVQTRGTGASGSFKLS,0.009 ± 0.11
3,VSKLITEALSVSQERVGRSLVALKKALAAAGYDVEKNNSRIKLSLKSLVNKGILVQTRGTGASGSFKLS,0.107 ± 0.072
4,VSKLITEALSVSQERVGFSLVALKKALAAAGYDVEKNNSRIKLSLKSLVNKGILVQTRGTGASGSFKLS,-0.481 ± 0.082
5,VSKLITEALSVSQERVGWSLVALKKALAAAGYDVEKNNSRIKLSLKSLVNKGILVQTRGTGASGSFKLS,-0.374 ± 0.049
6,VSKLITEALSVSQERVGGSLVALKKALAAAGYDVEKNNSRIKLSLKSLVNKGILVQTRGTGASGSFKLS,-0.129 ± 0.045
7,VSKLITEALSVSQERVGVSLVALKKALAAAGYDVEKNNSRIKLSLKSLVNKGILVQTRGTGASGSFKLS,-0.318 ± 0.039
8,VSKLITEALSVSQERVGLSLVALKKALAAAGYDVEKNNSRIKLSLKSLVNKGILVQTRGTGASGSFKLS,-0.077 ± 0.034
9,VSKLITEALSVSQERVGTSLVALKKALAAAGYDVEKNNSRIKLSLKSLVNKGILVQTRGTGASGSFKLS,-0.006 ± 0.08
10,VSKLITEALSVSQERVGKSLVALKKALAAAGYDVEKNNSRIKLSLKSLVNKGILVQTRGTGASGSFKLS,0.238 ± 0.051
11,VSKLITEALSVSQERVGISLVALKKALAAAGYDVEKNNSRIKLSLKSLVNKGILVQTRGTGASGSFKLS,-0.37 ± 0.07
12,VSKLITEALSVSQERVGCSLVALKKALAAAGYDVEKNNSRIKLSLKSLVNKGILVQTRGTGASGSFKLS,-0.127 ± 0.062
13,VSKLITEALSVSQERVGDSLVALKKALAAAGYDVEKNNSRIKLSLKSLVNKGILVQTRGTGASGSFKLS,-0.359 ± 0.11
14,VSKLITEALSVSQCRVGMSLVALKKALAAAGYDVEKNNSRIKLSLKSLVNKGILVQTRGTGASGSFKLS,-0.838 ± 0.46
15,VSKLITEALSVSQIRVGMSLVALKKALAAAGYDVEKNNSRIKLSLKSLVNKGILVQTRGTGASGSFKLS,-0.712 ± 0.055
16,VSKLITEALSVSQQRVGMSLVALKKALAAAGYDVEKNNSRIKLSLKSLVNKGILVQTRGTGASGSFKLS,-0.456 ± 0.087
17,VSKLITEALSVSQFRVGMSLVALKKALAAAGYDVEKNNSRIKLSLKSLVNKGILVQTRGTGASGSFKLS,-0.852 ± 0.039
18,VSKLITEALSVSQNRVGMSLVALKKALAAAGYDVEKNNSRIKLSLKSLVNKGILVQTRGTGASGSFKLS,-0.508 ± 0.084
19,VSKLITEALSVSQYRVGMSLVALKKALAAAGYDVEKNNSRIKLSLKSLVNKGILVQTRGTGASGSFKLS,-0.67 ± 0.056
